Data taken from the supplement of paper PMC10065799, “High-throughput profiling of sequence recognition by tyrosine kinases and SH2 domains using bacterial peptide display” (eLife, 2023).

Legend:
[1] = tested on: AncSZ; assay: phosphorylation enrichment, bacterial display (enrichment ratio); higher = better substrate or ligand; peptides without Tyr show the background
[2] = molecular target: EPHB1 (UniProt P54762); assay: as above
[3] = molecular target: EPHB2 (UniProt P29323); assay: as above
[4] = molecular target: FGFR1 (UniProt P11362); assay: as above
[5] = molecular target: FGFR3 (UniProt P22607); assay: as above
[6] = tested on: Fer (mouse); assay: as above
[7] = molecular target: Fes (UniProt P07332); assay: as above
[8] = molecular target: Fyn (UniProt P06241); assay: as above
[9] = molecular target: Hck (UniProt P08631); assay: as above
[10] = molecular target: Jak2 (UniProt O60674); assay: as above
[11] = molecular target: MERTK (UniProt Q12866); assay: as above
[12] = tested on: c-Abl (mouse); assay: as above
[13] = tested on: c-Src; assay: as above
[14] = molecular target: Grb2 SH2 (UniProt P62993); assay: SH2 binding enrichment of the phosphorylated peptide, bacterial display (enrichment ratio); higher = better substrate or ligand; peptides without Tyr show the background
[15] = molecular target: SHP2-C SH2; assay: as above
[16] = molecular target: c-Src SH2; assay: as above
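Wherever SH2 binding enrichment of the phosphorylated peptide, bacterial display is given: peptide library displayed on the E. coli surface as eCPX fusions, selected cells deep-sequenced, score is each peptide's frequency after selection divided by its frequency in the input.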
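Wherever phosphorylation enrichment, bacterial display is given: 11-residue human phosphosite peptides and single-mutation variants displayed on the E. coli surface, counted by deep sequencing, each peptide's frequency after selection divided by its frequency in the unselected input library; frequency after pTyr selection over input frequency; kinase dosed for 20-30% of maximal phosphorylation in three min.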

Sequence of Fes (P07332 whole entry, looked up): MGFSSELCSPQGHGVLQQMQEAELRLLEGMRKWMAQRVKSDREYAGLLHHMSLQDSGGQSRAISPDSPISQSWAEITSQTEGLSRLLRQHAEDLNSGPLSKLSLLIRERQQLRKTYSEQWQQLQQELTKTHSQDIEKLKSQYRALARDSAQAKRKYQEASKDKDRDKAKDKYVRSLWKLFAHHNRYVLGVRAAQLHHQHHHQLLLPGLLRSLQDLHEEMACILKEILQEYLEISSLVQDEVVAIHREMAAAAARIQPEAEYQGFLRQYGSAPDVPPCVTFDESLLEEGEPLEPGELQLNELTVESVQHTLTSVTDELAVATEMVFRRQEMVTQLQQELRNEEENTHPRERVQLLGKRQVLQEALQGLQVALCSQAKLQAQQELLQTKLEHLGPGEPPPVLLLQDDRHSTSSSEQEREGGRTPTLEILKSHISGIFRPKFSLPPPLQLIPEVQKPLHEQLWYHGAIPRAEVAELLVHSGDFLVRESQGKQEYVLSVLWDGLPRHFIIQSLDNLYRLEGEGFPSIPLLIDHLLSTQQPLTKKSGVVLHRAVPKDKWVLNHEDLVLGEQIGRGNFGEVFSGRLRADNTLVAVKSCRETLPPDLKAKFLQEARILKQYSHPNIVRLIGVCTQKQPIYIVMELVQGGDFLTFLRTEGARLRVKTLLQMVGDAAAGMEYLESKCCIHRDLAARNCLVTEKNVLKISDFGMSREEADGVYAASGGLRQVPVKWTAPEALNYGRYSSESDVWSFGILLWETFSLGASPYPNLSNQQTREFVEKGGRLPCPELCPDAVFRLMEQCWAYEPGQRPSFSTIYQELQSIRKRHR
Sequence of EPHB1 (P54762 whole entry, looked up): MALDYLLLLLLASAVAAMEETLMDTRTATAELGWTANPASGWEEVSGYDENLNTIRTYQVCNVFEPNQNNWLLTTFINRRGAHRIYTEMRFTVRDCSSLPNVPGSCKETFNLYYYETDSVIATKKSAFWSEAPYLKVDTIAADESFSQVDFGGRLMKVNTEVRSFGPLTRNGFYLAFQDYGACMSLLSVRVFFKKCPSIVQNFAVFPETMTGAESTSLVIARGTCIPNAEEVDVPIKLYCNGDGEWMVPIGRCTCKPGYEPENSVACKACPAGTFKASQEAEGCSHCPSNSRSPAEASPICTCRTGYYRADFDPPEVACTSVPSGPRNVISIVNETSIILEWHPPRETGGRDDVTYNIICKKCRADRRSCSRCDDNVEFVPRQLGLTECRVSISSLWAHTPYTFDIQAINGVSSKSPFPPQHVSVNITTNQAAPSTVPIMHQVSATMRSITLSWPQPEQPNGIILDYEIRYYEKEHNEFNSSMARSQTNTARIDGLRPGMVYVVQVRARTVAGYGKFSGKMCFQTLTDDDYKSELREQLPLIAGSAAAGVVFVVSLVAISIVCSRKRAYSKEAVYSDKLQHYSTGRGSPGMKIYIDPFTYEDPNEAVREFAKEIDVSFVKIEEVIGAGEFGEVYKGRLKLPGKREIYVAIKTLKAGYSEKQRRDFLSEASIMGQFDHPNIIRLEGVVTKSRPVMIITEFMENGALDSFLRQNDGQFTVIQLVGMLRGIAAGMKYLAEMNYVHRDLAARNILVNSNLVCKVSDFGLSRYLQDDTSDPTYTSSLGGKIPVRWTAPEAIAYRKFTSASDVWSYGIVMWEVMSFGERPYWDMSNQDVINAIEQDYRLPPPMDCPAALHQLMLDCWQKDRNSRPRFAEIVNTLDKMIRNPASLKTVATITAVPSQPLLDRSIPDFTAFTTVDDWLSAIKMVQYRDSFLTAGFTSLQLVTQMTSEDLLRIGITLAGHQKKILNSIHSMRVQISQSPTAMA
Sequence of MERTK (Q12866 whole entry, looked up): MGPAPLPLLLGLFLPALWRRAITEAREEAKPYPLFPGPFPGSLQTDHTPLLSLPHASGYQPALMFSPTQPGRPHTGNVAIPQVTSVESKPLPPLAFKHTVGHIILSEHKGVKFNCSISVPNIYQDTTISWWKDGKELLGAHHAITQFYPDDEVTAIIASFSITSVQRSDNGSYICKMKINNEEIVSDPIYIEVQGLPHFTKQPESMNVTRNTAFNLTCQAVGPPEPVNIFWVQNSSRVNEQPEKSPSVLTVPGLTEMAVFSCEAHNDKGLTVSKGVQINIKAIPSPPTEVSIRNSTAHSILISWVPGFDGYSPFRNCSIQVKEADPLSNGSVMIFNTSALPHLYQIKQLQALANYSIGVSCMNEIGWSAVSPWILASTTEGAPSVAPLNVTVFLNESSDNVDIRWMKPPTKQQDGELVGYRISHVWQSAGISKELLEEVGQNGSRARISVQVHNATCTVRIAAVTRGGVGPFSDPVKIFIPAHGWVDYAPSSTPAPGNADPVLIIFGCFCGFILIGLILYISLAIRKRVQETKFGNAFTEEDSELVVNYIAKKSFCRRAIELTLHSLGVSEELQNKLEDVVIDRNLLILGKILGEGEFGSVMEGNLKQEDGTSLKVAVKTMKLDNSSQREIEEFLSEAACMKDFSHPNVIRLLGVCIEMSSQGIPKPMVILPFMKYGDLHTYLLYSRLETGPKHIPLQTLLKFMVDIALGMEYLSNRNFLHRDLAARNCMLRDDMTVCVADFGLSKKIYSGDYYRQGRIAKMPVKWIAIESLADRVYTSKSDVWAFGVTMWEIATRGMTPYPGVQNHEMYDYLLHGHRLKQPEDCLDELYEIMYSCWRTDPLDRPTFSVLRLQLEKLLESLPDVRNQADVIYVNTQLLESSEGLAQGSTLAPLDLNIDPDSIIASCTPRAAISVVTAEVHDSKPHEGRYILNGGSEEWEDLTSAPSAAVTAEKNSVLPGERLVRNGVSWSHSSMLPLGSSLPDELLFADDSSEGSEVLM
Sequence of Hck (P08631 whole entry, looked up): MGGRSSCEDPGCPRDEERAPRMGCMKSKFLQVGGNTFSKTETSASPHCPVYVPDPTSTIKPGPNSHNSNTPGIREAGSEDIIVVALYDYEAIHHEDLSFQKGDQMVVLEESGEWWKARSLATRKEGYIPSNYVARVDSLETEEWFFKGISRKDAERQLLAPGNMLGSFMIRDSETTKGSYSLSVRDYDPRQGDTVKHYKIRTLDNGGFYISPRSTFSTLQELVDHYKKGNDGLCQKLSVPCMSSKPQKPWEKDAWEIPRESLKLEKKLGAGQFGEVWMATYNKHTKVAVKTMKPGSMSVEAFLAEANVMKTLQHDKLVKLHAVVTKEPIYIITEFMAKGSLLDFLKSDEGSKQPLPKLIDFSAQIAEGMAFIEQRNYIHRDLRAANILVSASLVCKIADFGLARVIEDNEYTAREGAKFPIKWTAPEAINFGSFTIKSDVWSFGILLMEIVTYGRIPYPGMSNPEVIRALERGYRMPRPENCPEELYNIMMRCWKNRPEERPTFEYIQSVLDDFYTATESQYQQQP
Sequence of Jak2 (O60674 whole entry, looked up): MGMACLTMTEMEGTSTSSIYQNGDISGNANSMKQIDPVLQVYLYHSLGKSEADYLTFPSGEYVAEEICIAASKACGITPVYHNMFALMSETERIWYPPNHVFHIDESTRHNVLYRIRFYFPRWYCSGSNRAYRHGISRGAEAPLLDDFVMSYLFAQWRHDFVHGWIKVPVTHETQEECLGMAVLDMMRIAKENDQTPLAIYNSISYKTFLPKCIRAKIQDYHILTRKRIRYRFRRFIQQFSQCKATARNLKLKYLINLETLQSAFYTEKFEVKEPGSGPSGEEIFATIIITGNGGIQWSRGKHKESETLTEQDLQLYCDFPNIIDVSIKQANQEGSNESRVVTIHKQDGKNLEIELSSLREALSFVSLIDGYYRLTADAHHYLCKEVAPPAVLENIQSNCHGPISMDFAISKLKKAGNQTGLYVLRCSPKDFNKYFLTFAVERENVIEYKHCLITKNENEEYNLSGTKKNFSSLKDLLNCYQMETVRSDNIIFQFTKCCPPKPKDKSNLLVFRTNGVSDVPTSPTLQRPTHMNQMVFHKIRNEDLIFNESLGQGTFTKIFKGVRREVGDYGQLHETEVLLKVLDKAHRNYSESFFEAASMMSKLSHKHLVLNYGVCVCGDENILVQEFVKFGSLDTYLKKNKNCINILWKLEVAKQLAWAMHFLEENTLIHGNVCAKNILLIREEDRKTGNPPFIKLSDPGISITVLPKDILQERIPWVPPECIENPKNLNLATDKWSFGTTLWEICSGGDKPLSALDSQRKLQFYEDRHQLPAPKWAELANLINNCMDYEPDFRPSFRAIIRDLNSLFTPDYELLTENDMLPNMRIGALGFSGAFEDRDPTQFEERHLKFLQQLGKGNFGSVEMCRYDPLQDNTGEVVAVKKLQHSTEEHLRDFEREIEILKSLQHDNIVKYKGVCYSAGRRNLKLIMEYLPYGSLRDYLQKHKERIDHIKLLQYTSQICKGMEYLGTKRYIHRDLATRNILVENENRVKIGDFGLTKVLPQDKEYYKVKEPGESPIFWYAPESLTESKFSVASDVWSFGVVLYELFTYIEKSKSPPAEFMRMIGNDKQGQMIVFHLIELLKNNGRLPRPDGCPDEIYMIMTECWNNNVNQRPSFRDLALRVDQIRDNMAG
Sequence of Fyn (P06241 whole entry, looked up): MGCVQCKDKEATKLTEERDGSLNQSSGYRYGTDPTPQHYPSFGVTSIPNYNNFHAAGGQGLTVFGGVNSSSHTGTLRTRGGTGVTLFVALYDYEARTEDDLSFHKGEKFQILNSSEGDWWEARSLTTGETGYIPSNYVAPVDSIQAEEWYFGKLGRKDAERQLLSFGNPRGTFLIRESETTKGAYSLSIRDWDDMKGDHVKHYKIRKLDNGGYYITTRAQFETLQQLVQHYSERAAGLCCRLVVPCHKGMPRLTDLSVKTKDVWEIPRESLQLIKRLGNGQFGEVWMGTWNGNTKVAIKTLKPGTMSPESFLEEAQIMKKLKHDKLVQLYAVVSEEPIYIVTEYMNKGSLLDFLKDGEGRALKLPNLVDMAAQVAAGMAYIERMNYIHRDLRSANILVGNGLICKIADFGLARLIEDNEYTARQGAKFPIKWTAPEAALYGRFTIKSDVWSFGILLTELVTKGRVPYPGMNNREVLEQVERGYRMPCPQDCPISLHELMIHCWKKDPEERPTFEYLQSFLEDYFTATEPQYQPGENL

Sequence	phosphorylation enrichment [1]	phosphorylation enrichment [2]	phosphorylation enrichment [3]	phosphorylation enrichment [4]	phosphorylation enrichment [5]	phosphorylation enrichment [6]	phosphorylation enrichment [7]	phosphorylation enrichment [8]	phosphorylation enrichment [9]	phosphorylation enrichment [10]	phosphorylation enrichment [11]	phosphorylation enrichment [12]	phosphorylation enrichment [13]	SH2 binding enrichment [14]	SH2 binding enrichment [15]	SH2 binding enrichment [16]
FSNPAYFVLEG [INPPL1_Y986_N982S_YF]	1.01	0.642	0.548	6.43	4.24	0.564	0.895	0.416	0.451	3.86	3.43	0.865	0.809	0.928	0.973	1.85
FSPPYYHRNCM [HGD_Y334_R330S]	0.807	0.558	0.664	0.66	0.609	0.482	0.957	0.505	0.515	0.817	0.451	0.749	0.482	0.876	0.778	0.606
FSTDCYRVGGH [NTRK2_Y707_Y706C_YF]	1.08	0.592	0.576	0.599	0.638	0.452	1.12	0.545	0.646	1.05	0.652	0.934	0.608	0.827	0.745	0.636
FTDGQYWIRGR [ACSF3_Y466_K462T]	1.02	0.509	0.463	0.425	0.555	0.408	0.992	0.422	1.03	0.818	0.521	0.611	0.588	0.648	0.489	0.358
FTDPFYDFEIE [ZC3H18_Y372_A368T_YF]	1.37	1.54	0.867	0.665	0.783	1.03	1.54	4.1	0.823	1.66	0.777	1.05	4.96	0.995	0.657	0.441
FTFNSYFMHWV [IGHV1-46_Y51_T49N_YF]	1.55	0.726	0.761	1.51	1.37	1.62	1.59	0.608	0.693	6.35	1.04	0.962	0.555	1.12	1.07	0.795
FTHSDYQFSQR [PKP2_Y166_YF]	0.828	0.435	0.538	0.458	0.646	0.594	0.764	0.63	0.508	0.589	0.383	0.619	0.455	1	0.723	0.62
FTNRNYDLDFD [MYC_Y12_YF]	1.36	0.751	0.587	0.561	0.696	0.543	1.42	0.5	0.634	1.22	0.494	1.01	0.633	0.828	0.659	3.48
